B1: U6.mir-675-2.3: mir-675 construct with modified 5' and 3' flanking sequences (nucleic acid)
DNA: TCTAGAGATCCGACGCCGCCATCTCTAGGCCCGCGCCGGCCCCCTCGCACAGACTTGTGGGAGAAGCTCGGCTACTCCCCTGCCCCGGTTAATTTGCATATAATATTTCCTAGTAACTATAGAGGCTTAATGTGCGATAAAAGACAGATAATCTGTTCTTTTTAATACTAGCTACATTTTACATGATAGGCTTGGATTTCTATAAGAGATACAAATACTAAATTATTATTTTAAAAAACAGCACAAAAGGAAACTCACCCTAACTGTAAAGTAATTGTGTGTTTTGAGACTATAAATATCCCTTGGAGAAAAGCCTTGTTTGAATCACACTGCCCCAGGGTCTGGTGCGGAGAGGGCCCACAGTGGACTTGGTGACGCTGTATGCCCTCACCGCTCAGCCCCTGGGGATACTCCTAATCACACTTTTTT
B2: U6.mir-675F: U6 mir-675 construct with flanking sequences similar to H1.mir-675 (nucleic acid)
DNA: GACGCCGCCATCTCTAGGCCCGCGCCGGCCCCCTCGCACAGACTTGTGGGAGAAGCTCGGCTACTCCCCTGCCCCGGTTAATTTGCATATAATATTTCCTAGTAACTATAGAGGCTTAATGTGCGATAAAAGACAGATAATCTGTTCTTTTTAATACTAGCTACATTTTACATGATAGGCTTGGATTTCTATAAGAGATACAAATACTAAATTATTATTTTAAAAAACAGCACAAAAGGAAACTCACCCTAACTGTAAAGTAATTGTGTGTTTTGAGACTATAAATATCCCTTGGAGAAAAGCCTTGTTTGCCCCAGGGTCTGGTGCGGAGAGGGCCCACAGTGGACTTGGTGACGCTGTATGCCCTCACCGCTCAGCCCCTGGGGAATTCTTCGATTCTGCTTTTTT
B3: U6.mir-675-2.5: mir-675 construct with modified 5' and 3' flanking sequences (nucleic acid)
DNA: TCTAGAGATCCGACGCCGCCATCTCTAGGCCCGCGCCGGCCCCCTCGCACAGACTTGTGGGAGAAGCTCGGCTACTCCCCTGCCCCGGTTAATTTGCATATAATATTTCCTAGTAACTATAGAGGCTTAATGTGCGATAAAAGACAGATAATCTGTTCTTTTTAATACTAGCTACATTTTACATGATAGGCTTGGATTTCTATAAGAGATACAAATACTAAATTATTATTTTAAAAAACAGCACAAAAGGAAACTCACCCTAACTGTAAAGTAATTGTGTGTTTTGAGACTATAAATATCCCTTGGAGAAAAGCCTTGTTAACGCGAATCACACTGCCCCAGGGTCTGGTGCGGAGAGGGCCCACAGTGGACTTGGTGACGCTGTATGCCCTCACCGCTCAGCCCCTGGGGATACTCCTAATCACACTTTTTT
B4: U6.mir-675-2.1: mir-675 construct with modified 5' and 3' flanking sequences (nucleic acid)
DNA: TCTAGAGATCCGACGCCGCCATCTCTAGGCCCGCGCCGGCCCCCTCGCACAGACTTGTGGGAGAAGCTCGGCTACTCCCCTGCCCCGGTTAATTTGCATATAATATTTCCTAGTAACTATAGAGGCTTAATGTGCGATAAAAGACAGATAATCTGTTCTTTTTAATACTAGCTACATTTTACATGATAGGCTTGGATTTCTATAAGAGATACAAATACTAAATTATTATTTTAAAAAACAGCACAAAAGGAAACTCACCCTAACTGTAAAGTAATTGTGTGTTTTGAGACTATAAATATCCCTTGGAGAAAAGCCTTGTTTGCCCCAGGGTCTGGTGCGGAGAGGGCCCACAGTGGACTTGGTGACGCTGTATGCCCTCACCGCTCAGCCCCTGGGGTAACTCCTAATCACACTTTTTT

How the values were obtained:
Type in all cases: cell-based, human
mir-675-5p [1] = assay: ddPCR of all mature mir-675-5p sequences (TaqMan Advanced miRNA cDNA synthesis) in HEK293 cells
Experimental: Digital Droplet PCR (ddPCR). For mir-675 and mi405 constructs, RNA extraction was carried out as described for QPCR above. For cDNA synthesis, the TaqMan advanced cDNA synthesis kit (Thermo Fisher) was used and cDNA was prepared by following manufacturer's instructions. ddPCR was carried out using 1× ddPCR Supermix for probes (No dUTP) (Bio-Rad), 1× commercially available mir-675 advanced TaqMan probe, or a custom made mi405 advanced TaqMan probe (ThermoFisher) and 50 ng of cDNA. For DUX4 cDNA synthesis, the High-Capacity cDNA Reverse Transcription Kit (Applied Biosystems) was used according to manufacturer's instructions. Within the same cDNA reaction, 1×RT random hexamer primers and 25 pmoles of the Oligo(dT) primer were used to generate cDNA for DUX4 and DUX4-responsive biomarkers and for mouse Rpl13A, used as a reference gene. To quantify DUX4, the ddPCR reaction mixture (20 μL) contained 1× ddPCR Evagreen Supermix (Bio-Rad), 1 μM of forward and reverse DUX4 primers (Sharma et al., J Genet Syndr Gene Ther 2016 August; 7(4):303. doi: 10.4172/2157-7412.1000303. Epub 2016 Aug. 8), and 50 ng of cDNA. To quantify Rpl13A and DUX4-responsive biomarkers (Trim36 and Wfdc3), the 1× ddPCR Supermix for probes (No dUTP) and TaqMan specific probes were used for each of the genes. Droplets were generated using the Automatic Droplet generator QX200 AutoDG (Bio-Rad), the reactions were amplified in a C1000 Touch™ Thermal Cycler with 96-Deep Well Reaction Module (Bio-Rad). Cycling conditions were set up following the QX200 ddPCR Evagreen Supermix protocol. All assays are compatible with an annealing temperature of 58° C. Droplets were then read using the QX200 droplet reader (Bio-Rad). Finally, data were analyzed using the QuantaSoft analysis software (Bio-Rad). For quantification, each reaction of 20 μL was estimated to give at least 10,000 acceptable droplets.
In order to quantify the level of all these mature sequences, the TaqMan advanced miRNA cDNA synthesis method that uses universal reverse transcription (RT) chemistry to synthesize cDNA templates that can be quantified using the TaqMan Advanced miRNA probes was used. In this method, most of the processed mature miRNA sequences were quantified.

DUX4 protein = assay: Western blot of V5-tagged DUX4 protein in co-transfected HEK293 cells; settings: CMV.DUX4-FL/CMV.eGFP; HEK293; molar ratio 1 to 3; eGFP normalizer; relative to U6-milacZ; N = 3-8
Experimental: Western Blots. […] 50 mM Tris (pH 7.5-8.0), 150 mM NaCl, 0.1% (v/v) SDS, 0.5% (v/v) deoxycholate, 1% (v/v) triton X-100 (Fisher Scientific) and 1 tablet of protease inhibitor (ThermoFisher Scientific) per 10 mL of buffer. The total protein extract was quantified using the DC Protein Assay (Bio-Rad). Twenty microgram samples were separated on 12% SDS-PAGE, transferred to nitrocellulose membrane, using the wet transfer system, and incubated with the following antibodies: mouse monoclonal antibody to V5 (horseradish peroxidase [HRP]-coupled) [1:5,000 in 5% milk TBST buffer (150 mM NaCl, 50 mM Tris-HCl pH 7.4 and 0.1% Tween 20 (Fisher Scientific)), R961-25; Invitrogen); rabbit polyclonal eGFP antibody (1:50,000 in 3% BSA PBS, ab290; Abcam); mouse monoclonal β-actin antibodies (1:60,000; Sigma, St Louis, MO); overnight at 4° C. When using the eGFP antibody, membranes were blocked 30 mins with 3% BSA PBS prior to blotting. eGFP-probed blots were washed five times, 5 min each with 0.5% Tween 20 (Fisher Scientific) in TBST buffer, and then incubated with HRP-coupled goat anti-rabbit secondary antibody (1:250,000 in 3% BSA PBS, 115-035-144; Jackson ImmunoResearch) for 2 hours at room temperature. V5-probed blots were washed five times, 5 min each with 0.1% Tween 20 in TBST buffer. Following washes, blots were developed using Immobilon Western HRP substrate (Millipore) and exposed to film. DUX4.V5, and eGFP quantification was assessed using ImageJ.

mir-675-5p [2] = assay: Small-transcript northern blot of mir-675 processing in HEK293 cells; settings: HEK293; anti-mir-675-5p biotinylated probe
From the text: Small-Transcript Northern Blots. […] (SEQ ID NO: 148)).

| Molecule | fold change of all mature mir-675-5p sequences compared to U6.mir-675 (mir-675-5p [1]) | Average inhibition efficiency (%) of DUX4 protein levels (DUX4 protein) | mature mir-675-5p bands on northern blot (mir-675-5p [2]) |
| --- | --- | --- | --- |
| B1 | 114±8% | 64 ± 10 (N = 8) % | – |
| B2 | 133±38% | 64 ± 6 (N = 6) % | detectable mir-675 mature sequences |
| B3 | 153±52% | 56 ± 6 (N = 5) % | – |
| B4 | 142±45% | 64 ± 4 (N = 8) % | detectable mir-675 mature sequences |

Source: patent US20240093191A1, “COMPOSITIONS AND METHODS FOR TREATING DISEASE ASSOCIATED WITH DUX4 OVEREXPRESSION” (RESEARCH INSTITUTE AT NATIONWIDE CHILDREN'S HOSPITAL, priority 2021, published 2024)
